From article PMC12959407 (Science Advances, 2026) come the findings set out here.

“And” between values parts separate entries of the source, which are not always exact repeats. Equal values may be shown once.

This series concerns the molecule itself. Description: cryo-EM structure; single-particle cryo-EM of purified proteins; mHsp60 10 uM and mHsp10 8 uM mixed in 20 mM tris-HCl pH 7.7, 20 mM KCl, 10 mM MgCl2, 2 mM ATP; incubated 30 s to 30 min before vitrification.

B1: recombinant WT human mitochondrial Hsp60 (mHsp60), mature form (natural protein)
chain: GSAKDVKFGADARALMLQGVDLLADAVAVTMGPKGRTVIIEQSWGSPKVTKDGVTVAKSIDLKDKYKNIGAKLVQDVANNTNEEAGDGTTTATVLARSIAKEGFEKISKGANPVEIRRGVMLAVDAVIAELKKQSKPVTTPEEIAQVATISANGDKEIGNIISDAMKKVGRKGVITVKDGKTLNDELEIIEGMKFDRGYISPYFINTSKGQKCEFQDAYVLLSEKKISSIQSIVPALEIANAHRKPLVIIAEDVDGEALSTLVLNRLKVGLQVVAVKAPGFGDNRKNQLKDMAIATGGAVFGEEGLTLNLEDVQPHDLGKVGEVIVTKDDAMLLKGKGDKAQIEKRIQEIIEQLDVTTSEYEKEKLNERLAKLSDGVAVLKVGGTSDVEVNEKKDRVTDALNATRAAVEEGIVLGGGCALLRCIPALDSLTPANEDQKIGIEIIKRTLKIPAMTIAKNAGVEGSLIVEKIMQSSSEVGYDAMAGDFVNMVEKGIIDPTKVVRTALLDAAGVASLLTTAEVVVTEIPKEEKDPGMGAMGGMGGGMGGGMF
notes: additional Gly-Ser kept at the N terminus after TEV cleavage; human mitochondrial Hsp60 without the 26-residue mitochondrial targeting signal of the 573-residue precursor; mature protein of 547 residues beginning with AKDVKFG; numbers count on: the mature protein; Forms heptameric rings; seven copies in single rings and half-footballs, fourteen in double rings, bullets and footballs; also called …
By stoichiometry N is commonly meant a count of units in the complex or per binding partner. As to B1, the “stoichiometry N” value was 7 and 14.
